Source: US20070293656A1, “COLLAGEN BINDING PEPTIDES” (Epix Pharmaceuticals, Inc., priority 2005, published 2007)
Bridge positions count the residues as written; N and C are the ends. Ends that are not written are not given here.

Target: T1, human collagen type I (acid soluble, extracted from placenta, Sigma C7774) (human, UniProt P02452 162-1218; P08123 80-1119)
T1 construct: gelled and dried as a fibril film in the assay; also called dried human collagen; h-Collagen
Experiment: dried collagen assay
Method: An additional 90 μL is reserved in a HPLC glass vial as a measure of the total concentration.

T1 sequence (P02452 162-1218 limits assumed, chain 1 of 2): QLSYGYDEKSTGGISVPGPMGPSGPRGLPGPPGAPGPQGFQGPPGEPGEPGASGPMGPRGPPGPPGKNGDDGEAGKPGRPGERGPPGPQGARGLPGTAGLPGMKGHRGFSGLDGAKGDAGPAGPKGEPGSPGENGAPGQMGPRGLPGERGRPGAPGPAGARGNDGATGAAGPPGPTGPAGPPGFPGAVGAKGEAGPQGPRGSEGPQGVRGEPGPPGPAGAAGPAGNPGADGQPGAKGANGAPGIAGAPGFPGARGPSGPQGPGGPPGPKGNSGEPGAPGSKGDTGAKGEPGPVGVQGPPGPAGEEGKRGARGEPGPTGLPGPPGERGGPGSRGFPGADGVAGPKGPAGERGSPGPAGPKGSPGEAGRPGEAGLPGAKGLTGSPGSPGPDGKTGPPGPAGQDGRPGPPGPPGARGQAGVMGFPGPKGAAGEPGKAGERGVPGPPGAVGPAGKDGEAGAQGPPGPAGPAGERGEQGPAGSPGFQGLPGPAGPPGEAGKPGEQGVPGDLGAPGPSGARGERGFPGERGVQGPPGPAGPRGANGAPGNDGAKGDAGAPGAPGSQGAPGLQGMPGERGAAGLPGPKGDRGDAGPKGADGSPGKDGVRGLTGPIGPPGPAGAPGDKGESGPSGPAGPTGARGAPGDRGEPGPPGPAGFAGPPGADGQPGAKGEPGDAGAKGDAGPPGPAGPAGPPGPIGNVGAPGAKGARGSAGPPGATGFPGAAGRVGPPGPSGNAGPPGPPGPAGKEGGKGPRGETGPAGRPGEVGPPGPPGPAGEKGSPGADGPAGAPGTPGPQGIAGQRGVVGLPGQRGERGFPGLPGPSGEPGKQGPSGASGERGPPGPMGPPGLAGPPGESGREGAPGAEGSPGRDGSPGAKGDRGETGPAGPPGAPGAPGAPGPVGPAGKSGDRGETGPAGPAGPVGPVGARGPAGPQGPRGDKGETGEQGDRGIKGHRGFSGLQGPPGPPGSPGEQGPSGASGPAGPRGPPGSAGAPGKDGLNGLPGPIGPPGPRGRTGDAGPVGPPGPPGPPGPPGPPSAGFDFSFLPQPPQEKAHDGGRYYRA
T1 sequence (P08123 80-1119 limits assumed, chain 2 of 2): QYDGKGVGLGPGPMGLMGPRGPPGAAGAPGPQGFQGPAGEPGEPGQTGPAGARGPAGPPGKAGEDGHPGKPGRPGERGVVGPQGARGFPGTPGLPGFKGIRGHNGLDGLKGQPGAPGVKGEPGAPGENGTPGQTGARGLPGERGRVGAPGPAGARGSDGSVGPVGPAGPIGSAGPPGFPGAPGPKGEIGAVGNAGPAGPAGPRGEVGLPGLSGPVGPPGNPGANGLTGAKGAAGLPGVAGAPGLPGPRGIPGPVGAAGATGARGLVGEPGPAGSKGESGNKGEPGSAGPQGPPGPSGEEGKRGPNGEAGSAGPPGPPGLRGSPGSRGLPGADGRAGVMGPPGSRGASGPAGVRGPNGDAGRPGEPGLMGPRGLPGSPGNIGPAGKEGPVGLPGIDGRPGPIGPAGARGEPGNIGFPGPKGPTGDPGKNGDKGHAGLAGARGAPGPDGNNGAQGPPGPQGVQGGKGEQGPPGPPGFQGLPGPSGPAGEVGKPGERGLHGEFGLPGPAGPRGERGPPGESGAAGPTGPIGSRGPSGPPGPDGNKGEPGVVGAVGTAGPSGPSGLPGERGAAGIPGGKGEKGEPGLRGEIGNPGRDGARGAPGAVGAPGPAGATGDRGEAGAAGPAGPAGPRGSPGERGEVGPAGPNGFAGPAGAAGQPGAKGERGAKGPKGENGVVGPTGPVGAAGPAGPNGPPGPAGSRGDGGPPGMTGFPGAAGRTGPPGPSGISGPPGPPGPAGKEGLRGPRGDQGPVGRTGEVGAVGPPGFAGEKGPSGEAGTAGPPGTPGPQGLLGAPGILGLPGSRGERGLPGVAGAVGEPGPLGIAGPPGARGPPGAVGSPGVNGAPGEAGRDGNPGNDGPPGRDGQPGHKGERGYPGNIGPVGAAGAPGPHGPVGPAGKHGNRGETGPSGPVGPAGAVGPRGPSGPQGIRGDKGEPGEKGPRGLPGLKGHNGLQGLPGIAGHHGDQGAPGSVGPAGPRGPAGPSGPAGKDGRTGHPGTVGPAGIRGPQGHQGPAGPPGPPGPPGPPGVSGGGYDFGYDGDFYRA

| Binder | % bound [%] |
| --- | --- |
| TWICSHNDKGWTCGDQ (disulfide 4-13 (inferred)) [SEQ ID NO: 64] | 8 |
| AWFCSQKNRLWSCGET (disulfide 4-13 (inferred)) [SEQ ID NO: 49] | 19 |
| MWNCTMTKSGWRCFEK (disulfide 4-13 (inferred)) [SEQ ID NO: 54] | 12 |
| RWSCWLDENGWKCDGT (disulfide 4-13 (inferred)) [SEQ ID NO: 52] | 15 |
| HWQCRLTDYGWNCDER (disulfide 4-13 (inferred)) [SEQ ID NO: 59] | 10 |
| EWHCVFIQGDWLCNSG (disulfide 4-13 (inferred)) [SEQ ID NO: 72] | 1 |
| NWYCSQALDNWSCKLR (disulfide 4-13 (inferred)) [SEQ ID NO: 63] | 8 |
| GWFCKLVDGNWECSTK (disulfide 4-13 (inferred)) [SEQ ID NO: 53] | 12 |
| SWHCALVENSWQCSEA (disulfide 4-13 (inferred)) [SEQ ID NO: 73] | 1 |
| SWNCHWRNQGWLCSGG (disulfide 4-13 (inferred)) [SEQ ID NO: 55] | 12 |
| SWHCALMGSRWVCGQN (disulfide 4-13 (inferred)) [SEQ ID NO: 71] | 3 |
| GWVCMMRETDWNCSI (disulfide 4-13 (inferred)) [SEQ ID NO: 58] | 10 |
| KWFCELMQDQWQCGSK (disulfide 4-13 (inferred)) [SEQ ID NO: 50] | 18 |
| KWFCELMHDQWQCGSK (disulfide 4-13 (inferred)) [SEQ ID NO: 51] | 18 |
| RWTCDLQRGDWQCSTI (disulfide 4-13 (inferred)) [SEQ ID NO: 57] | 11 |
| SWNCHMIRNEWRCTGH (disulfide 4-13 (inferred)) [SEQ ID NO: 56] | 11 |
| HWSCYLGDNGWNCHDR (disulfide 4-13 (inferred)) [SEQ ID NO: 62] | 9 |
| EWHCVLNDFRWTCGGD (disulfide 4-13 (inferred)) [SEQ ID NO: 60] | 10 |
| FWRCALLDGHWQCTDH (disulfide 4-13 (inferred)) [SEQ ID NO: 70] | 3 |
| KWSCYMVDHQWYCREF (disulfide 4-13 (inferred)) [SEQ ID NO: 61] | 9 |
| HWQCGEKMSFWSCELV (disulfide 4-13 (inferred)) [SEQ ID NO: 69] | 3 |
